Experimental findings from US20160272693A1 (ZEALAND PHARMA A S, published 2016) are described below.

*1 amine or outer side, *2 acyl side, *3 side chain or, on linkers, in order; H or OH if unused. Bridges are numbered along the chain shown (N, C = ends). [ ]: non-standard residue; d: D form. The star is where a group is joined. C20 diacid = O=C(O)CCCCCCCCCCCCCCCCCCC(=O)*; γGlu = O=C(O)[C@H](CCC(=O)[*:2])N[*:1]; Hyp = O=C(O)[C@@H]1C[C@@H](O)CN1; NMeI = CC[C@H](C)[C@H](NC)C(=O)O; Aad = N[C@@H](CCCC(=O)O)C(=O)O; Sar = CNCC(=O)O

The target in this assay is T1, human amylin receptor 3 (hAMYR3), hCTR2 co-expressed with human receptor activity modifying protein 3 (hRAMP3) (human, UniProt P30988 25-474; O60896 24-148).
T1 sequence (looked up) 1: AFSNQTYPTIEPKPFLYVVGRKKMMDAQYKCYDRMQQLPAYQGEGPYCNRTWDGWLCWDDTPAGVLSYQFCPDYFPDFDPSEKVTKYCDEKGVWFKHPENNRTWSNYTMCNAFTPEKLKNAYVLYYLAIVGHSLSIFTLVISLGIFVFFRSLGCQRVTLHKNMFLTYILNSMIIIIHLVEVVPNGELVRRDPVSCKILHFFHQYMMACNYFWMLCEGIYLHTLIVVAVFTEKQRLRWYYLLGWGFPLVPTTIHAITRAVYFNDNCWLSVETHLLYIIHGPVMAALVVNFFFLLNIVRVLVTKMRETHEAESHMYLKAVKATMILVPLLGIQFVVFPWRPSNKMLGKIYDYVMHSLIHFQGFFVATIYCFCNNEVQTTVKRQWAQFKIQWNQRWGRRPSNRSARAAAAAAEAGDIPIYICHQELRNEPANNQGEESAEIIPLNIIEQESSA
T1 sequence (looked up) 2: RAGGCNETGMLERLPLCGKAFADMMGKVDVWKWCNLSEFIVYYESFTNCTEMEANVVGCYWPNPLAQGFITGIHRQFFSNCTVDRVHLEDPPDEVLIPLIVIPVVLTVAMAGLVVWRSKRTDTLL
Nature of the assay: cell-based or functional assay.

B1: [19CD]-isoGlu-R-C( )-QTAT-C( )-ATERLA-Aad-FLQRSSF-Gly(Me)-A-Ile(Me)-LSSTEVGSNTP-NH2 (Compd. 93) (peptide)
peptide: {C20 diacid}-[γGlu]RCQTATCATERLA[Aad]FLQRSSF[Sar]A[NMeI]LSSTEVGSNTP-NH2
modifications: disulfide 3-8
SMILES: CC[C@H](C)[C@@H](C(=O)N[C@@H](CC(C)C)C(=O)N[C@@H](CO)C(=O)N[C@@H](CO)C(=O)N[C@H](C(=O)N[C@@H](CCC(=O)O)C(=O)N[C@H](C(=O)NCC(=O)N[C@@H](CO)C(=O)N[C@@H](CC(N)=O)C(=O)N[C@H](C(=O)N1CCC[C@H]1C(N)=O)[C@@H](C)O)C(C)C)[C@@H](C)O)N(C)C(=O)[C@H](C)NC(=O)CN(C)C(=O)[C@H](Cc1ccccc1)NC(=O)[C@H](CO)NC(=O)[C@H](CO)NC(=O)[C@H](CCCNC(=N)N)NC(=O)[C@H](CCC(N)=O)NC(=O)[C@H](CC(C)C)NC(=O)[C@H](Cc1ccccc1)NC(=O)[C@H](CCCC(=O)O)NC(=O)[C@H](C)NC(=O)[C@H](CC(C)C)NC(=O)[C@H](CCCNC(=N)N)NC(=O)[C@H](CCC(=O)O)NC(=O)[C@@H](NC(=O)[C@H](C)NC(=O)[C@@H]1CSSC[C@H](NC(=O)[C@H](CCCNC(=N)N)NC(=O)CC[C@H](NC(=O)CCCCCCCCCCCCCCCCCCC(=O)O)C(=O)O)C(=O)N[C@@H](CCC(N)=O)C(=O)N[C@@H]([C@@H](C)O)C(=O)N[C@@H](C)C(=O)N[C@@H]([C@@H](C)O)C(=O)N1)[C@@H](C)O
With B1, the “hAMYR3 EC50 (nM); cAMP induction” value was determined as 0.43 nM.

B2: [19CD]-isoGlu-R-C( )-QTAT-C( )-ATDRLAHFLQRSSF-Gly(Me)-A-Ile(Me)-LSSTEVGSGT-Hyp-NH2 (Compd. 91) (peptide)
peptide: {C20 diacid}-[γGlu]RCQTATCATDRLAHFLQRSSF[Sar]A[NMeI]LSSTEVGSGT[Hyp]-NH2
modifications: disulfide 3-8
SMILES: CC[C@H](C)[C@@H](C(=O)N[C@@H](CC(C)C)C(=O)N[C@@H](CO)C(=O)N[C@@H](CO)C(=O)N[C@H](C(=O)N[C@@H](CCC(=O)O)C(=O)N[C@H](C(=O)NCC(=O)N[C@@H](CO)C(=O)NCC(=O)N[C@H](C(=O)N1C[C@H](O)C[C@H]1C(N)=O)[C@@H](C)O)C(C)C)[C@@H](C)O)N(C)C(=O)[C@H](C)NC(=O)CN(C)C(=O)[C@H](Cc1ccccc1)NC(=O)[C@H](CO)NC(=O)[C@H](CO)NC(=O)[C@H](CCCNC(=N)N)NC(=O)[C@H](CCC(N)=O)NC(=O)[C@H](CC(C)C)NC(=O)[C@H](Cc1ccccc1)NC(=O)[C@H](Cc1c[nH]cn1)NC(=O)[C@H](C)NC(=O)[C@H](CC(C)C)NC(=O)[C@H](CCCNC(=N)N)NC(=O)[C@H](CC(=O)O)NC(=O)[C@@H](NC(=O)[C@H](C)NC(=O)[C@@H]1CSSC[C@H](NC(=O)[C@H](CCCNC(=N)N)NC(=O)CC[C@H](NC(=O)CCCCCCCCCCCCCCCCCCC(=O)O)C(=O)O)C(=O)N[C@@H](CCC(N)=O)C(=O)N[C@@H]([C@@H](C)O)C(=O)N[C@@H](C)C(=O)N[C@@H]([C@@H](C)O)C(=O)N1)[C@@H](C)O
B2: the “hAMYR3 EC50 (nM); cAMP induction” value was determined as 0.17 nM.
On to {C20 diacid}-[γGlu]RCGTATCATERLAHFLTRSSF[Sar]A[NMeI]LSSTEVGSST[Hyp]-NH2 (disulfide 3-8) [[19CD]-isoGlu-R-C( )-GTAT-C( )-ATERLAHFLTRSSF-Gly(Me)-A-Ile(Me)-LSSTEVGSST-Hyp-NH2 (Compd. 9)], for which the “hAMYR3 EC50 (nM); cAMP induction” value was 0.29 nM.

B3: [19CD]-isoGlu-R-C( )-NTAT-C( )-ATQRLA-Aad-FLQRSSF-Gly(Me)-A-Ile(Me)-LSSTEVGSNT-Hyp-NH2 (Compd. 86) (peptide)
peptide: {C20 diacid-γGlu}-RCNTATCATQRLA[Aad]FLQRSSF[Sar]A[NMeI]LSSTEVGSNT[Hyp]-NH2
modifications: disulfide 2-7
SMILES: CC[C@H](C)[C@@H](C(=O)N[C@@H](CC(C)C)C(=O)N[C@@H](CO)C(=O)N[C@@H](CO)C(=O)N[C@H](C(=O)N[C@@H](CCC(=O)O)C(=O)N[C@H](C(=O)NCC(=O)N[C@@H](CO)C(=O)N[C@@H](CC(N)=O)C(=O)N[C@H](C(=O)N1C[C@H](O)C[C@H]1C(N)=O)[C@@H](C)O)C(C)C)[C@@H](C)O)N(C)C(=O)[C@H](C)NC(=O)CN(C)C(=O)[C@H](Cc1ccccc1)NC(=O)[C@H](CO)NC(=O)[C@H](CO)NC(=O)[C@H](CCCNC(=N)N)NC(=O)[C@H](CCC(N)=O)NC(=O)[C@H](CC(C)C)NC(=O)[C@H](Cc1ccccc1)NC(=O)[C@H](CCCC(=O)O)NC(=O)[C@H](C)NC(=O)[C@H](CC(C)C)NC(=O)[C@H](CCCNC(=N)N)NC(=O)[C@H](CCC(N)=O)NC(=O)[C@@H](NC(=O)[C@H](C)NC(=O)[C@@H]1CSSC[C@H](NC(=O)[C@H](CCCNC(=N)N)NC(=O)CC[C@H](NC(=O)CCCCCCCCCCCCCCCCCCC(=O)O)C(=O)O)C(=O)N[C@@H](CC(N)=O)C(=O)N[C@@H]([C@@H](C)O)C(=O)N[C@@H](C)C(=O)N[C@@H]([C@@H](C)O)C(=O)N1)[C@@H](C)O
As for B3, the “hAMYR3 EC50 (nM); cAMP induction” value stood at 0.15 nM.

B4: [19CD]-isoGlu-R-C( )-QTAT-C( )-ATDRLAHFLQRSSF-Gly(Me)-A-Ile(Me)-LSSTEVGSNTP-NH2 (Compd. 92) (peptide)
peptide: {C20 diacid}-[γGlu]RCQTATCATDRLAHFLQRSSF[Sar]A[NMeI]LSSTEVGSNTP-NH2
modifications: disulfide 3-8
SMILES: CC[C@H](C)[C@@H](C(=O)N[C@@H](CC(C)C)C(=O)N[C@@H](CO)C(=O)N[C@@H](CO)C(=O)N[C@H](C(=O)N[C@@H](CCC(=O)O)C(=O)N[C@H](C(=O)NCC(=O)N[C@@H](CO)C(=O)N[C@@H](CC(N)=O)C(=O)N[C@H](C(=O)N1CCC[C@H]1C(N)=O)[C@@H](C)O)C(C)C)[C@@H](C)O)N(C)C(=O)[C@H](C)NC(=O)CN(C)C(=O)[C@H](Cc1ccccc1)NC(=O)[C@H](CO)NC(=O)[C@H](CO)NC(=O)[C@H](CCCNC(=N)N)NC(=O)[C@H](CCC(N)=O)NC(=O)[C@H](CC(C)C)NC(=O)[C@H](Cc1ccccc1)NC(=O)[C@H](Cc1c[nH]cn1)NC(=O)[C@H](C)NC(=O)[C@H](CC(C)C)NC(=O)[C@H](CCCNC(=N)N)NC(=O)[C@H](CC(=O)O)NC(=O)[C@@H](NC(=O)[C@H](C)NC(=O)[C@@H]1CSSC[C@H](NC(=O)[C@H](CCCNC(=N)N)NC(=O)CC[C@H](NC(=O)CCCCCCCCCCCCCCCCCCC(=O)O)C(=O)O)C(=O)N[C@@H](CCC(N)=O)C(=O)N[C@@H]([C@@H](C)O)C(=O)N[C@@H](C)C(=O)N[C@@H]([C@@H](C)O)C(=O)N1)[C@@H](C)O
In the case of B4, the “hAMYR3 EC50 (nM); cAMP induction” value was 0.22 nM.

B5: [19CD]-isoGlu-R-C( )-NTAT-C( )-ATQRLA-Aad-FLQRSSF-Gly(Me)-A-Ile(Me)-LSSTEVGSST-Hyp-NH2 (Compd. 87) (peptide)
peptide: {C20 diacid-γGlu}-RCNTATCATQRLA[Aad]FLQRSSF[Sar]A[NMeI]LSSTEVGSST[Hyp]-NH2
modifications: disulfide 2-7
SMILES: CC[C@H](C)[C@@H](C(=O)N[C@@H](CC(C)C)C(=O)N[C@@H](CO)C(=O)N[C@@H](CO)C(=O)N[C@H](C(=O)N[C@@H](CCC(=O)O)C(=O)N[C@H](C(=O)NCC(=O)N[C@@H](CO)C(=O)N[C@@H](CO)C(=O)N[C@H](C(=O)N1C[C@H](O)C[C@H]1C(N)=O)[C@@H](C)O)C(C)C)[C@@H](C)O)N(C)C(=O)[C@H](C)NC(=O)CN(C)C(=O)[C@H](Cc1ccccc1)NC(=O)[C@H](CO)NC(=O)[C@H](CO)NC(=O)[C@H](CCCNC(=N)N)NC(=O)[C@H](CCC(N)=O)NC(=O)[C@H](CC(C)C)NC(=O)[C@H](Cc1ccccc1)NC(=O)[C@H](CCCC(=O)O)NC(=O)[C@H](C)NC(=O)[C@H](CC(C)C)NC(=O)[C@H](CCCNC(=N)N)NC(=O)[C@H](CCC(N)=O)NC(=O)[C@@H](NC(=O)[C@H](C)NC(=O)[C@@H]1CSSC[C@H](NC(=O)[C@H](CCCNC(=N)N)NC(=O)CC[C@H](NC(=O)CCCCCCCCCCCCCCCCCCC(=O)O)C(=O)O)C(=O)N[C@@H](CC(N)=O)C(=O)N[C@@H]([C@@H](C)O)C(=O)N[C@@H](C)C(=O)N[C@@H]([C@@H](C)O)C(=O)N1)[C@@H](C)O
In the case of B5, the “hAMYR3 EC50 (nM); cAMP induction” value worked out at 0.13 nM.
The figure for {C20 diacid-γGlu}-RCQTATCATERLAHFLQRSSF[Sar]A[NMeI]LSSTEVGSGT[Hyp]-NH2 (disulfide 2-7) [[19CD]-isoGlu-R-C( )-QTAT-C( )-ATERLAHFLQRSSF-Gly(Me)-A-Ile(Me)-LSSTEVGSGT-Hyp-NH2 (Compd. 90)] is 0.24 nM.

B6: [19CD]-isoGlu-R-C( )-QTAT-C( )-ATDRLA-Aad-FLQRF-Gly(Me)-A-Ile(Me)-LSSTEVGSNT-Hyp-NH2 (Compd. 95) (peptide)
peptide: {C20 diacid}-[γGlu]RCQTATCATDRLA[Aad]FLQRF[Sar]A[NMeI]LSSTEVGSNT[Hyp]-NH2
modifications: disulfide 3-8
SMILES: CC[C@H](C)[C@@H](C(=O)N[C@@H](CC(C)C)C(=O)N[C@@H](CO)C(=O)N[C@@H](CO)C(=O)N[C@H](C(=O)N[C@@H](CCC(=O)O)C(=O)N[C@H](C(=O)NCC(=O)N[C@@H](CO)C(=O)N[C@@H](CC(N)=O)C(=O)N[C@H](C(=O)N1C[C@H](O)C[C@H]1C(N)=O)[C@@H](C)O)C(C)C)[C@@H](C)O)N(C)C(=O)[C@H](C)NC(=O)CN(C)C(=O)[C@H](Cc1ccccc1)NC(=O)[C@H](CCCNC(=N)N)NC(=O)[C@H](CCC(N)=O)NC(=O)[C@H](CC(C)C)NC(=O)[C@H](Cc1ccccc1)NC(=O)[C@H](CCCC(=O)O)NC(=O)[C@H](C)NC(=O)[C@H](CC(C)C)NC(=O)[C@H](CCCNC(=N)N)NC(=O)[C@H](CC(=O)O)NC(=O)[C@@H](NC(=O)[C@H](C)NC(=O)[C@@H]1CSSC[C@H](NC(=O)[C@H](CCCNC(=N)N)NC(=O)CC[C@H](NC(=O)CCCCCCCCCCCCCCCCCCC(=O)O)C(=O)O)C(=O)N[C@@H](CCC(N)=O)C(=O)N[C@@H]([C@@H](C)O)C(=O)N[C@@H](C)C(=O)N[C@@H]([C@@H](C)O)C(=O)N1)[C@@H](C)O
Turning to B6, the “hAMYR3 EC50 (nM); cAMP induction” value came out at 0.2 nM.
